Target: the molecule itself
Experiment: transmission electron microscopy after rotary shadowing (self-association)

B1: Recombinant mouse β-netrin lacking the C domain, with His tag (rβ-NΔC+His) (ligand)
chain: GLNGVAGANSRCEKACNPRMGNLALGRKLRADTMCGQNATELFCFYSENADLTCRQPKCDKCNAAHSHLAHPPSAMADSSFRFPRTWWQSAEDVHREKIQLDLEAEFYFTHLIMVFKSPRPAAMVLDRSQDFGKTWKPYKYFATNCSATFGLEDDVVKKGAICTSRYSNPFPCTGGEVIFRALSPPYDIENPYSAKVQEQLKITNLRVRLLKRQSCPCQINDLNAKPHHFMHYAVYDFIVKGSCFCNGHADQCLPVEGFRPIKAPGAFHVVHGRCMCKHNTAGSHCQHCAPLYNDRPWEAADGRTGAPNECRTCKCNGHADTCHFDVNVWEASGNRSGGVCNNCQHNTEGQHCQRCKPGFYRDLRRPFSAPDACKACSCHPVGSAILPFSSVTFCDPSNGDCPCKPGVAGPHCDRCMVGYWGFGDYGCRPCDCAGSCDPLTGDCISSNADVDWY
notes: also called rβ-NAC+His; rβ-netrin ΔC; not shown: six histidine tag followed by a thrombin cleavage site
  binding result: no binding

Source: US20040248178A1 (GENERAL HOSPITAL, published 2004)
